Measured values from US20230174575A1 (priority 2020, published 2023).

Key:
[1] = tested on: SARS-CoV-2; format: cell-based; conditions: concentrations ranging from 10 mg/ml to 1.25 mg/ml
[2] = tested on: Vero cells; experiment: Cell toxicity against Vero cells by MTT assay; conditions: MTT assay
Description: Cell toxicity was monitored by establishing the effect of lysozyme HCl against Vero cells (epithelial cells of monkey kidneys). The cells were seeded in 96-well plates at the concentration of 1×10^4 cells/well. 24 hours after seeding, the cells were treated with serial dilutions of lysozyme HCl or chloroquine (as control), in a final volume of 200 in triplicate. After 72 hours' incubation at 37° C. with 5% CO2, cell viability was measured by MTT assay (D'Alessandro, M. et al., Differential effects on angiogenesis of two antimalarial compounds, dihydroartemisinin and artemisone: Implications for embryotoxicity, Toxicology. 241 (2007) 66-74. Doi: 10.1016/j.tox.2007.08.084).
The data were calculated as percentage cell viability using the formula:
[(absorbance of sample−blank of cell-free sample)/mean absorbance of control of media]×100.
The cytotoxicity of ovotransferrin and chloroquine (CQ) was measured by MTT assay, similarly to the method used for lysozyme HCl.

B1: Ovotransferrin: hen egg white protein, product code 501P2001090, produced by Bioseutica BV (protein, UniProt P02789 20-705, looked up)
Ovotransferrin: APPKSVIRWCTISSPEEKKCNNLRDLTQQERISLTCVQKATYLDCIKAIANNEADAISLDGGQAFEAGLAPYKLKPIAAEVYEHTEGSTTSYYAVAVVKKGTEFTVNDLQGKTSCHTGLGRSAGWNIPIGTLLHRGAIEWEGIESGSVEQAVAKFFSASCVPGATIEQKLCRQCKGDPKTKCARNAPYSGYSGAFHCLKDGKGDVAFVKHTTVNENAPDQKDEYELLCLDGSRQPVDNYKTCNWARVAAHAVVARDDNKVEDIWSFLSKAQSDFGVDTKSDFHLFGPPGKKDPVLKDLLFKDSAIMLKRVPSLMDSQLYLGFEYYSAIQSMRKDQLTPSPRENRIQWCAVGKDEKSKCDRWSVVSNGDVECTVVDETKDCIIKIMKGEADAVALDGGLVYTAGVCGLVPVMAERYDDESQCSKTDERPASYFAVAVARKDSNVNWNNLKGKKSCHTAVGRTAGWVIPMGLIHNRTGTCNFDEYFSEGCAPGSPPNSRLCQLCQGSGGIPPEKCVASSHEKYFGYTGALRCLVEKGDVAFIQHSTVEENTGGKNKADWAKNLQMDDFELLCTDGRRANVMDYRECNLAEVPTHAVVVRPEKANKIRDLLERQEKRFGVNGSEKSKFMMFESQNKDLLFKDLTKCLFKVREGTTYKEFLGDKFYTVISSLKTCNPSDILQMCSFLEGK
antiviral activity of ovotransferrin alone [1]: no antiviral activity was detected
viability compared with control cells ([2]; 10 mg/ml): 100%
cytotoxicity ([2]; maximum concentration used (10 mg/ml)): non-toxic
